Data as given in US20260070949A1 (NOVOZYMES A S, published 2026).

B1: active deamidase from Chryseobacterium sp-62563 (protein)
chain: AVSVIPNLATLNSLFAQIKNQACGTSTASSPCITFRYPVDGCYARAHKMRQILLNAGYDCEKQFVYGNLRASTGTCCVSWVYHVAILVSFKNASGVVEKRIIDPSLFSSGPVTDAAWRAACTNTSCGSASVSSFANTAGNVYYRSPSGSLLYDNNYVNTNCVLNIFSSLSGCSPSPAPSVASCGF
B2: deamidase inhibitor from Chryseobacterium sp-62563 (other)
chain: QNLTWYNNSTITNITEDPDKPNEVVRVSIGISAQVFYLSKKSTDYKTLLEKATQSFKKSKTYDIGIENKTNIIKEIKEVK

Tests used:
[1] = molecular target: T1, deamidase inhibitor from Chryseobacterium sp-62563
T1 chain: B2 chain

[2] = molecular target: T2, active deamidase from Chryseobacterium sp-62563 (Chryseobacterium sp-62563); test: nanoDSF at 330 nm, Tm of the deamidase/inhibitor complex; active deamidase alone (SEQ ID NO: 4) gave 66.3° C.
T2 construct: Protein-glutamine glutaminase (EC 3.5.1.44), called 'active deamidase'
T2 chain: B1 chain
Experimental: 60 μL sample was transferred in replicates to a black-bottomed 384 well plate, and the plate was briefly centrifugated to remove potential air bubbles.
The thermal unfolding temperature of the samples was analyzed using a Prometheus NT.Plex system from NanoTemper Technologies GmbH, with the following settings: [0305] (i) Temperature scan rate: 3.3° C. per minute; and [0306] (ii) Temperature scan interval: 20-95° C.
Using the nanoDSF procedure, as described in Example 2, the thermal unfolding temperature of an active deamidase and the corresponding deamidase/inhibitor complex was measured.

Binder	deamidase activity (% initial rate), fluorescence substrate FITC-PP-Dnp with glutamyl endopeptidase [1]	NanoDSF thermal unfolding temperature [2] [° C.]
B1	the deamidase activity (% initial rate) was significantly reduced	
B2		70.1
